Results published in patent US20240197834A1 (HANMI PHARM, published 2024).
Square brackets hold non-standard residues; d marks the D form. Ends that are not written are not given here. Aib = CC(C)(N)C(=O)O

B1: glucagon derivative of SEQ ID NO: 11 (peptide)
peptide: Y[Aib]QGTFTSDYSKYLDEKCAKEFVQWLMNT
B2: glucagon derivative of SEQ ID NO: 16 (peptide)
peptide: Y[Aib]QGTFTSDYSKYLDCRRAQVFVQWLMRT
B3: glucagon derivative of SEQ ID NO: 33 (peptide)
peptide: YXQGTFTSDYSKYLDSRRAQDFVQWLMNT
modifications: aminoisobutyric acid (Aib) at position 2 (printed X)
B4: glucagon derivative of SEQ ID NO: 17 (peptide)
peptide: Y[Aib]QGTFTSDYSKYLDCVRAQDFVQWLMRT
B5: glucagon derivative of SEQ ID NO: 18 (peptide)
peptide: Y[Aib]QGTFTSDYSKYLDSRRACDFRLWLMNT
B6: glucagon derivative of SEQ ID NO: 3 (peptide)
peptide: HSQGTFTSDYSKYLDCERAQDFVQWLMNT
B7: glucagon derivative of SEQ ID NO: 10 (peptide)
peptide: Y[Aib]QGTFTSDYSKYLDSCDADDFVVWLINT
B8: glucagon derivative of SEQ ID NO: 45 (peptide)
peptide: Y[Aib]QGTFTSDYSCYLDEKRAKEFVQWLMNT
B9: glucagon derivative of SEQ ID NO: 15 (peptide)
peptide: Y[Aib]QGTFTSDYSKYLCEKRAQDFVVWLMNT
B10: glucagon derivative of SEQ ID NO: 14 (peptide)
peptide: Y[Aib]QGTFTSDYSKYLDCKRAKEFVQWLMNT
B11: glucagon derivative of SEQ ID NO: 5 (peptide)
peptide: HSQGTFTSDYSKYLDSCEAQDFVQWLMNT
B12: glucagon derivative of SEQ ID NO: 42 (peptide)
peptide: Y[Aib]QGTFCSDYSKYLDSRRAQDFVQWLMNT
B13: glucagon derivative of SEQ ID NO: 6 (peptide)
peptide: HSQGTFTSDYSKYLDSCEADDFVQWLMNT
B14: glucagon derivative of SEQ ID NO: 13 (peptide)
peptide: Y[Aib]QGTFTSDYSCYLDSRRAQDFVQWLMNT
B15: glucagon derivative of SEQ ID NO: 4 (peptide)
peptide: HSQGTFTSDYSKYLDSCDAQDFVQWLMNT
B16: glucagon derivative of SEQ ID NO: 2 (peptide)
peptide: HSQGTFTSDYSKYLDCDRAQDFVQWLMNT
B17: glucagon derivative of SEQ ID NO: 7 (peptide)
peptide: YSQGTFTSDYSKYLDSCEADDFVQWLMNT
B18: glucagon derivative of SEQ ID NO: 43 (peptide)
peptide: Y[Aib]QGTFTSDCSKYLDSRRAQDFVQWLMNT
B19: glucagon derivative of SEQ ID NO: 44 (peptide)
peptide: YXQGTFTSDYSKYLDSRRAQDFVQWLMNTC
modifications: aminoisobutyric acid (Aib) at position 2 (printed X)

Target: glucagon receptor
Test: cell-based or functional assay

In vitro activity (Relative Activity to SEQ ID NO: 1, %) [%] | Binder
4.6 | B1
4.2 | B2
108 | B3
23.2 | B4
< 0.1 | B5
6.1 | B6
< 0.1 | B7
5.2 | B8
1.1 | B9
18.1 | B10
0.3 | B11
37.9 | B12
< 0.1 | B13
5.2 | B14
< 0.1 | B15
0.6 | B16
< 0.1 | B17
1.6 | B18
75.4 | B19
